Laboratory results: US9879306B2, “Luciferase biosensors for cAMP” (PROMEGA CORPORATION, priority 2008, dated 2018)

B1: L9-L: L9 background with Luc2.0 F518L; SEQ ID NO:94, 95 (protein)
chain: MPGAVGKVVPFFEAKVVDLDTGKTLGVNQRGELCVRGPMIMSGYVNNPEATNALIDKDGWLHSGDIAYWDEDEHFFIVDRLKSLIKYKGYQVAPAELESILLQHPNIFDAGVAGLPDDDAGELPAAVVVLEHGKTMTEKEIVDYVASQVTTAKKLRGGVVLVDEVPKGLTGKLDARKIREILIKAKKGSIAGCGDAGEGMYESFIESLPFLKSLEFSARLKVVDVIGTKVYNDGEQIIAQGDSADSFFIIESGEVKITMKRKGKSEVEENGAVEIARCSRGQYFGELALVTNKPRAASAHAIGTVKCLAMDVQAFERLLGPCMEIMKRNIATYEEQLVALFGTNMDIVAKNIKKGPAPFYPLEDGTAGEQLHKAMKRYALVPGTIAFTDAHIEVDITYAEYFEMSVRLAEAMKRYGLNTNHRIVVCSENSLQFFMPVLGALFIGVAVAPANDIYNERELLNSMGISQPTVVFVSKKGLQKILNVQKKLPIIQKIIIMDSKTDYQGFQSMYTFVTSHLPPGFNEYDFVPESFDRDKTIALIMNSSGSTGLPKGVALPHRTACVRFSHARDPIFGNQIIPDTAILSVVPFHHGFGMFTTLGYLICGFRVVLMYRFEEELFLRSLQDYKIQSALLVPTLFSFFAKSTLIDKYDLSNLHEIASGGAPLSKEVGEAVAKRFHLPGIRQGYGLTETTSAILITPEGV
B2: L9-Q: L9 background with Luc2.0 K541Q; SEQ ID NO:96, 97 (protein)
chain: MPGAVGKVVPFFEAKVVDLDTGKTLGVNQRGELCVRGPMIMSGYVNNPEATNALIDKDGWLHSGDIAYWDEDEHFFIVDRLKSLIKYKGYQVAPAELESILLQHPNIFDAGVAGLPDDDAGELPAAVVVLEHGKTMTEKEIVDYVASQVTTAKKLRGGVVFVDEVPKGLTGKLDARKIREILIQAKKGSIAGCGDAGEGMYESFIESLPFLKSLEFSARLKVVDVIGTKVYNDGEQIIAQGDSADSFFIIESGEVKITMKRKGKSEVEENGAVEIARCSRGQYFGELALVTNKPRAASAHAIGTVKCLAMDVQAFERLLGPCMEIMKRNIATYEEQLVALFGTNMDIVAKNIKKGPAPFYPLEDGTAGEQLHKAMKRYALVPGTIAFTDAHIEVDITYAEYFEMSVRLAEAMKRYGLNTNHRIVVCSENSLQFFMPVLGALFIGVAVAPANDIYNERELLNSMGISQPTVVFVSKKGLQKILNVQKKLPIIQKIIIMDSKTDYQGFQSMYTFVTSHLPPGFNEYDFVPESFDRDKTIALIMNSSGSTGLPKGVALPHRTACVRFSHARDPIFGNQIIPDTAILSVVPFHHGFGMFTTLGYLICGFRVVLMYRFEEELFLRSLQDYKIQSALLVPTLFSFFAKSTLIDKYDLSNLHEIASGGAPLSKEVGEAVAKRFHLPGIRQGYGLTETTSAILITPEGV
B3: L9-ILQ: L9 background with Luc2.0 F369I, F518L, K541Q; SEQ ID NO:86, 87 (protein)
chain: MPGAVGKVVPFIEAKVVDLDTGKTLGVNQRGELCVRGPMIMSGYVNNPEATNALIDKDGWLHSGDIAYWDEDEHFFIVDRLKSLIKYKGYQVAPAELESILLQHPNIFDAGVAGLPDDDAGELPAAVVVLEHGKTMTEKEIVDYVASQVTTAKKLRGGVVLVDEVPKGLTGKLDARKIREILIQAKKGSIAGCGDAGEGMYESFIESLPFLKSLEFSARLKVVDVIGTKVYNDGEQIIAQGDSADSFFIIESGEVKITMKRKGKSEVEENGAVEIARCSRGQYFGELALVTNKPRAASAHAIGTVKCLAMDVQAFERLLGPCMEIMKRNIATYEEQLVALFGTNMDIVAKNIKKGPAPFYPLEDGTAGEQLHKAMKRYALVPGTIAFTDAHIEVDITYAEYFEMSVRLAEAMKRYGLNTNHRIVVCSENSLQFFMPVLGALFIGVAVAPANDIYNERELLNSMGISQPTVVFVSKKGLQKILNVQKKLPIIQKIIIMDSKTDYQGFQSMYTFVTSHLPPGFNEYDFVPESFDRDKTIALIMNSSGSTGLPKGVALPHRTACVRFSHARDPIFGNQIIPDTAILSVVPFHHGFGMFTTLGYLICGFRVVLMYRFEEELFLRSLQDYKIQSALLVPTLFSFFAKSTLIDKYDLSNLHEIASGGAPLSKEVGEAVAKRFHLPGIRQGYGLTETTSAILITPEGV
B4: L9-I: L9 background with Luc2.0 F369I; SEQ ID NO:92, 93 (protein)
chain: MPGAVGKVVPFIEAKVVDLDTGKTLGVNQRGELCVRGPMIMSGYVNNPEATNALIDKDGWLHSGDIAYWDEDEHFFIVDRLKSLIKYKGYQVAPAELESILLQHPNIFDAGVAGLPDDDAGELPAAVVVLEHGKTMTEKEIVDYVASQVTTAKKLRGGVVFVDEVPKGLTGKLDARKIREILIKAKKGSIAGCGDAGEGMYESFIESLPFLKSLEFSARLKVVDVIGTKVYNDGEQIIAQGDSADSFFIIESGEVKITMKRKGKSEVEENGAVEIARCSRGQYFGELALVTNKPRAASAHAIGTVKCLAMDVQAFERLLGPCMEIMKRNIATYEEQLVALFGTNMDIVAKNIKKGPAPFYPLEDGTAGEQLHKAMKRYALVPGTIAFTDAHIEVDITYAEYFEMSVRLAEAMKRYGLNTNHRIVVCSENSLQFFMPVLGALFIGVAVAPANDIYNERELLNSMGISQPTVVFVSKKGLQKILNVQKKLPIIQKIIIMDSKTDYQGFQSMYTFVTSHLPPGFNEYDFVPESFDRDKTIALIMNSSGSTGLPKGVALPHRTACVRFSHARDPIFGNQIIPDTAILSVVPFHHGFGMFTTLGYLICGFRVVLMYRFEEELFLRSLQDYKIQSALLVPTLFSFFAKSTLIDKYDLSNLHEIASGGAPLSKEVGEAVAKRFHLPGIRQGYGLTETTSAILITPEGV
B5: L9-IL: L9 background with Luc2.0 F369I, F518L; SEQ ID NO:84, 85 (protein)
chain: MPGAVGKVVPFIEAKVVDLDTGKTLGVNQRGELCVRGPMIMSGYVNNPEATNALIDKDGWLHSGDIAYWDEDEHFFIVDRLKSLIKYKGYQVAPAELESILLQHPNIFDAGVAGLPDDDAGELPAAVVVLEHGKTMTEKEIVDYVASQVTTAKKLRGGVVLVDEVPKGLTGKLDARKIREILIKAKKGSIAGCGDAGEGMYESFIESLPFLKSLEFSARLKVVDVIGTKVYNDGEQIIAQGDSADSFFIIESGEVKITMKRKGKSEVEENGAVEIARCSRGQYFGELALVTNKPRAASAHAIGTVKCLAMDVQAFERLLGPCMEIMKRNIATYEEQLVALFGTNMDIVAKNIKKGPAPFYPLEDGTAGEQLHKAMKRYALVPGTIAFTDAHIEVDITYAEYFEMSVRLAEAMKRYGLNTNHRIVVCSENSLQFFMPVLGALFIGVAVAPANDIYNERELLNSMGISQPTVVFVSKKGLQKILNVQKKLPIIQKIIIMDSKTDYQGFQSMYTFVTSHLPPGFNEYDFVPESFDRDKTIALIMNSSGSTGLPKGVALPHRTACVRFSHARDPIFGNQIIPDTAILSVVPFHHGFGMFTTLGYLICGFRVVLMYRFEEELFLRSLQDYKIQSALLVPTLFSFFAKSTLIDKYDLSNLHEIASGGAPLSKEVGEAVAKRFHLPGIRQGYGLTETTSAILITPEGV
B6: L9-IQ: L9 background with Luc2.0 F369I, K541Q; SEQ ID NO:74, 75 (protein)
chain: MPGAVGKVVPFIEAKVVDLDTGKTLGVNQRGELCVRGPMIMSGYVNNPEATNALIDKDGWLHSGDIAYWDEDEHFFIVDRLKSLIKYKGYQVAPAELESILLQHPNIFDAGVAGLPDDDAGELPAAVVVLEHGKTMTEKEIVDYVASQVTTAKKLRGGVVFVDEVPKGLTGKLDARKIREILIQAKKGSIAGCGDAGEGMYESFIESLPFLKSLEFSARLKVVDVIGTKVYNDGEQIIAQGDSADSFFIIESGEVKITMKRKGKSEVEENGAVEIARCSRGQYFGELALVTNKPRAASAHAIGTVKCLAMDVQAFERLLGPCMEIMKRNIATYEEQLVALFGTNMDIVAKNIKKGPAPFYPLEDGTAGEQLHKAMKRYALVPGTIAFTDAHIEVDITYAEYFEMSVRLAEAMKRYGLNTNHRIVVCSENSLQFFMPVLGALFIGVAVAPANDIYNERELLNSMGISQPTVVFVSKKGLQKILNVQKKLPIIQKIIIMDSKTDYQGFQSMYTFVTSHLPPGFNEYDFVPESFDRDKTIALIMNSSGSTGLPKGVALPHRTACVRFSHARDPIFGNQIIPDTAILSVVPFHHGFGMFTTLGYLICGFRVVLMYRFEEELFLRSLQDYKIQSALLVPTLFSFFAKSTLIDKYDLSNLHEIASGGAPLSKEVGEAVAKRFHLPGIRQGYGLTETTSAILITPEGV

Experiments:
GPR41 [1] = biological target: T1, GPR41 (Homo sapiens, UniProt O14843); experiment: Sodium proprionate CRC with biosensor variants in HEK293 cells stably expressing GPR41; assay type: cell-based; conditions: for Fold Response Na proprionate + FSK(1 μM): with FSK 1 μM; for Fold Response Na proprionate: without FSK, ratio of induced to uninduced signal
T1 sequence (O14843 1-346): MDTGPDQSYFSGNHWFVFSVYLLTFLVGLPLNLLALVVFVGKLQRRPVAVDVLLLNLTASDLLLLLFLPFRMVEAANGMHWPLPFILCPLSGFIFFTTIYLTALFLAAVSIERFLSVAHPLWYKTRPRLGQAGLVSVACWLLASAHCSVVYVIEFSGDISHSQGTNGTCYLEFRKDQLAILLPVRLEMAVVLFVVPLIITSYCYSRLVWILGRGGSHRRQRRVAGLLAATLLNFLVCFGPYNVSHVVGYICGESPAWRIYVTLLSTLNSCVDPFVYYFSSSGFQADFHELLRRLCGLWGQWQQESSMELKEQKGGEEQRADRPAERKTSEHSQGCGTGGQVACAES
Description: (§1) After 24 hours, the cells were transiently transfected with one of the cAMP biosensor variants (Tables 7A and 7B). After another 24 hours, the cells were equilibrated for 2 hours at room temperature using 5 mM EF-luc in CO2 independent media with 10% FBS. Prior to the addition of the compounds, luminescence was measured. The compounds (12× stock in CO2 independent media without FBS) were then added to the cells. For GPR41 expressing cells, sodium proprionate CRC was added. […] The cells were allowed to incubate another 30 minutes and luminescence read on a Varioskan Flash. EC50 values and fold responses were calculated for each of the clones with each of the compounds with or without FSK. In addition, variants […]7 (Example VIIB), 16A2 (Example VIIB) and GS358 were also screened.

GPR41 [2] = experiment: as above; assay type: cell-based; conditions: ratio of RLU of FSK treated well to untreated well
Description: as §1

Molecule | Fold Response Na proprionate + FSK(1 μM) (GPR41 [1]) | Fold Response Na proprionate (GPR41 [1]) | Fold Signal Change (GPR41 [2])
B1 | 5.72 fold | 3.04 fold | 72.2 fold
B2 | 5.24 fold | 2.57 fold | 42.0 fold
B3 | 10.21 fold | 4.13 fold | 140.4 fold
B4 | 3.83 fold | 3.61 fold | 83.5 fold
B5 | 7.43 fold | 3.67 fold | 96.7 fold
B6 | 5.17 fold | 3.41 fold | 64.0 fold
